Patent US7070969 (UNIVERSITY OF QUEENSLAND, dated 2006)

Assays:
[1] = target: T1, Human plasmin (human, UniProt P00747 97-810); experiment: comparison of Table 3 Ki values; reference aprotinin (Willmott et al., 1995)
T1 construct: mature

[2] = target: T1, Human plasmin; experiment: progress curves of S-2251 hydrolysis, 18 nM plasmin, n = 6, global fit to Eq. 1-3
[3] = target: T1, Human plasmin; experiment: progress curves of S-2251 hydrolysis, 2 nM plasmin, n = 6, global fit to Eq. 1-3
[4] = target: T1, Human plasmin; experiment: plasmin inhibition kinetics (kinetic profile)

T1 sequence (P00747 97-810): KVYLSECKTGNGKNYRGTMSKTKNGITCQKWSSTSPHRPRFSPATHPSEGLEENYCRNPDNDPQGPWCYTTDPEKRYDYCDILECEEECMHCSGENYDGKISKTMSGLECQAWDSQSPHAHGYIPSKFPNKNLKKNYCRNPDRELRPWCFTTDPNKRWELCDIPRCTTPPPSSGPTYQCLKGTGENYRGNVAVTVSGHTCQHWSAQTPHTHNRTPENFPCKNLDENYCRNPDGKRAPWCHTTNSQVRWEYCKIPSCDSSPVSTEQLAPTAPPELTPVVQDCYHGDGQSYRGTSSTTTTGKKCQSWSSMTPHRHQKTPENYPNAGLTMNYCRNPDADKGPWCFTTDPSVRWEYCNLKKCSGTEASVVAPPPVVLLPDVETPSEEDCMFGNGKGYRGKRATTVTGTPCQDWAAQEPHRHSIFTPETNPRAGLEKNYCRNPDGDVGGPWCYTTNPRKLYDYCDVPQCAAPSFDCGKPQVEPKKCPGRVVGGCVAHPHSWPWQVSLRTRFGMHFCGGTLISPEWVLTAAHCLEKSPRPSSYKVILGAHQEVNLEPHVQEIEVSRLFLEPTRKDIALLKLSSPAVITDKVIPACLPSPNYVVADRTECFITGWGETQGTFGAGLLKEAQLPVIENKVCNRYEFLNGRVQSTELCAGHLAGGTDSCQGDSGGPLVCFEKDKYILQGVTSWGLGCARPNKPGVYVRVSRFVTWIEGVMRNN

| Binder | fold difference of Ki against aprotinin [1] | Ki [2] | Ki [3] | Ki [4] |
| --- | --- | --- | --- | --- |
| Textilinin 1 (other, also called Txln 1) KDRPDFCELPADTGPCRVRFPSFYYNPDEKKCLEFIYGGCEGNANNFITKEECESTCAA | ~100 fold | 2.6 nM | 3.5 nM |  |
| Textilinin 2 (other, also called Txln 2) KDRPELCELPPDTGPCRVRFPSFYYNPDEQKCLEFIYGGCEGNANNFITKEECESTCAA | ~100 fold | 2.8 nM | 2.2 nM | 2 nM |
